The data set has as its system MS2 coat protein. Put plainly: apparent KD of MS2 coat protein; designed switch direction (-1 OFF switch, 1 ON switch): 1; higher = weaker reporter binding. A digest of the protocol: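 Designed RNA switches sharing common flanks were transcribed on Illumina chips by stalled E. coli RNA polymerase. They were titrated with SNAP-549-labelled MS2 coat protein, from 0.7 or 1.5 nM doubling to 3 µM, in Tris-HCl pH 7.5 buffer with KCl, MgCl2, BSA, DTT, tRNA and Tween-20. Titrations ran without input, with 200 uM small-molecule ligand, or with an oligonucleotide input. The apparent KD of each design is the median over its clusters, after curve-fitting of normalised cluster fluorescence.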

Where [1] appears, read: input ligand: microRNA oligo, concentration not stated.
Setting [2] is: Eterna round: R95, input ligand: microRNA oligo, concentration not stated.
Setting [3] is: Eterna round: R95, input ligand: FMN 200 uM.
The mark [4] stands for this setting: Eterna round: R95, input ligand: none.

Consider “GUUACAUGAGGAUCACCCAUGUAUGUGUGGGAGUAAGUGUCUUAGGAUAUCUAUCAUUUUAUUUAAGAGAAGGAAGAUUGUUGU [JMF's solution 93] (Eterna round: R96, puzzle: Same State NG 3)”, for which the “apparent KD of MS2 coat protein” value was determined as 121 nM (input ligand: FMN 200 uM), 77.4 nM under setting [1] and 111 nM (input ligand: none).
With “GUUACAUGAGGAUCACCCAUGUAUGUGUGGGAGUAAGUGUCUUAGGAUAUCUAUGAAUUAAUUUAAGAGAAGGAAGAUUGUUGU [JMF's solution 73] (Eterna round: R96, puzzle: Same State NG 3)”, the “apparent KD of MS2 coat protein” value reads like this: (input ligand: FMN 200 uM) 107 nM; under setting [1], 73.3 nM; (input ligand: none) 112 nM.
Take “GUUACAUGAGGAUCACCCAUGUAUGUGUGGGAGUAAGUGUCUUAGGAUAUCUAUGAUGUAAUUUAAGAGAAGGAAGAUUGUUGU [JMF's solution 76] (Eterna round: R96, puzzle: Same State NG 3)”: the “apparent KD of MS2 coat protein” value runs as follows: (input ligand: FMN 200 uM) 135 nM; under setting [1], 128 nM; (input ligand: none) 150 nM.
With “GUUACAUGAGGAUCACCCAUGUAUGUGUGGGAGUAAGUGUCUUAGGAUAUCUAUGAUUUAAUUUGAGAGAAGGAAGAUUGUUGU [JMF's solution 87] (Eterna round: R96, puzzle: Same State NG 3)”, the “apparent KD of MS2 coat protein” value is, setting by setting: (input ligand: FMN 200 uM) 88.8 nM; under setting [1], 76.4 nM; (input ligand: none) 102 nM.
For “GUUACAUGAGGAUCACCCAUGUAUGUGUGGGAGUAAGUGUCUUAGGAUAUCUAUGAUUUGAUUUAAGAGAAGGAAGAUUGUUGU [JMF's solution 78] (Eterna round: R96, puzzle: Same State NG 3)”, the “apparent KD of MS2 coat protein” value runs as follows: (input ligand: FMN 200 uM) 122 nM; under setting [1], 80.9 nM; (input ligand: none) 110 nM.
Take “GUUACAUGAGGAUCACCCAUGUAUGUGUGGGAGUAAGUGUCUUAGGAUAUCUAUUAAUUAAAUUAAGAGAAGGAAGAUUGUUGU [JMF's solution 14] (Eterna round: R96, puzzle: Same State NG 3)”: the “apparent KD of MS2 coat protein” value (input ligand: FMN 200 uM) worked out at 127 nM, the “apparent KD of MS2 coat protein” value under setting [1] came out at 83.7 nM and the “apparent KD of MS2 coat protein” value (input ligand: none) stood at 112 nM.
In the same order, the values of “GUUACAUGAGGAUCACCCAUGUAUGUGUGGGAGUAAGUGUCUUAGGAUAUCUGUAAUUUAAUUUAAGAGAAGGAAGAUUGUUGU [JMF's solution 31] (Eterna round: R96, puzzle: Same State NG 3)” are 128 nM, 94.5 nM and 121 nM.
The corresponding values for “GUUACAUGAGGAUCACCCAUGUAUGUGUGGGAGUAAGUGUCUUAGGAUAUCUGUUAUUUAAUAUAAGAGAAGGAAGAUUGUUGU [JMF's solution 44] (Eterna round: R96, puzzle: Same State NG 3)” are 123 nM, 76.5 nM and 108 nM.
In the same order, the values of “GUUACAUGAGGAUCACCCAUGUAUGUGUGGGAGUAAGUGUCUUAGGAUAUCUGUUAUUUAAUCUAAGAGAAGGAAGAUUGUUGU [JMF's solution 45] (Eterna round: R96, puzzle: Same State NG 3)” are 113 nM, 66.7 nM and 94.1 nM.
On to “GUUACAUGAGGAUCACCCAUGUAUGUGUGGGAGUAAGUGUCUUAGGAUAUCUGUUAUUUAAUUUCAGAGAAGGAAGAUUGUUGU [JMF's solution 48] (Eterna round: R96, puzzle: Same State NG 3)”, for which the “apparent KD of MS2 coat protein” value runs as follows: (input ligand: FMN 200 uM) 125 nM; under setting [1], 91.2 nM; (input ligand: none) 105 nM.
In the case of “GUUACAUGAGGAUCACCCAUGUAUGUGUGGGAGUAAGUGUCUUAGGAUAUCUGUUUUUUAAUUUAAGAGAAGGAAGAUUGUUGU [JMF's solution 33] (Eterna round: R96, puzzle: Same State NG 3)”, the “apparent KD of MS2 coat protein” value runs as follows: (input ligand: FMN 200 uM) 105 nM; under setting [1], 59.6 nM; (input ligand: none) 112 nM.
For the sequence “GUUACAUGAGGAUCACCCAUGUGUGUGUGGGAGUAAGUGGCUUAGGAUAUCUAUGAUUUAAGUUAAGAGAAGGAAGAUUGUUGU [SS-NG3-LRO02] (Eterna round: R96, puzzle: Same State NG 3)”, the “apparent KD of MS2 coat protein” value is, setting by setting: (input ligand: FMN 200 uM) 194 nM; under setting [1], 204 nM; (input ligand: none) 272 nM.
“GUUACAUGAGGAUCACCCAUGUGUGUGUGGGAGUGAGUGGCUUAGGAUAUCUAUGAUUUUAGUUAAGAGAAGGAGGAUUGUUGU [SS-NG3-LRO06] (Eterna round: R96, puzzle: Same State NG 3)”: the “apparent KD of MS2 coat protein” value came to 365 nM (input ligand: FMN 200 uM), 322 nM under setting [1] and 380 nM (input ligand: none).
With “GUUAGGAAUCUAGCAAACAUGAGGAUCACCCAUGUAAGUGGGAAGGAUAUGGUACAGAAACUGUACCAGAAGGUCUUAUUGAUU [Omei SS(NG) 3 AV5] (Eterna round: R96, puzzle: Same State NG 3)”, the “apparent KD of MS2 coat protein” value (input ligand: FMN 200 uM) stood at 81.7 nM, the “apparent KD of MS2 coat protein” value under setting [1] was determined as 247 nM and the “apparent KD of MS2 coat protein” value (input ligand: none) stood at 371 nM.
The corresponding values for “GUUAGGAAUCUAGCAUACAUGAGGAUCACCCAUGUAAGUGGGAAGGAUAUGGUACAGAAACUGUACCAGAAGGUCUUAUUGUUU [Omei SS(NG) 3 AV7] (Eterna round: R96, puzzle: Same State NG 3)” are 149 nM, 366 nM and 330 nM.
As to “GUUAGGAAUCUAGCCAACAUGAGGAUCACCCAUGUUAGUGGGAAGGAUAUGGUACAGAAACUGUACCAGAAGGUCUUAUUGUUU [Omei SS(NG) 3 AV10] (Eterna round: R96, puzzle: Same State NG 3)”, the “apparent KD of MS2 coat protein” value stood at 75.4 nM (input ligand: FMN 200 uM), 54.6 nM under setting [1] and 96.6 nM (input ligand: none).
“GUUAUACAUGAGGAUCACCCAUGUCAAUGUAGUCGAGGAUAUGGGCAGCUAUGAGGCGUACUAGAAGGCGAUGAGU [JL-ss1-3.14 ViennaUCT mod] (puzzle: Same State 1)”: the “apparent KD of MS2 coat protein” value under setting [2] worked out at 122 nM.
Consider “GUUAUUAAUGCAGGAUAUGAUUAACAUGAGGAUCACCCAUGUGGUGUUGUGAGUAAGGAGAGUGAUCAGAAGGGCAUUUUUUUU [JMF's solution 40] (Eterna round: R96, puzzle: Same State NG 2)”, for which the “apparent KD of MS2 coat protein” value reads like this: (input ligand: FMN 200 uM) 890 nM; under setting [1], 815 nM; (input ligand: none) 764 nM.
On to “GUUUCAUCGAAAGGAUAUGUAUUGAUUGCCAUUGCAGAAGGUUCUCAGACAUGAGGAUCACCCAUGUCAAGCGGAAACGUAGUA [Eternabot solution 37] (Eterna round: R96, puzzle: Same State NG 1)”, for which the “apparent KD of MS2 coat protein” value is, setting by setting: (input ligand: FMN 200 uM) 20.1 nM; under setting [1], 15.4 nM; (input ligand: none) 47.6 nM.
Regarding “UAAACUUCUUUUAGUGUGUUGCCAGUUUUACAUGAGGAUCACCCAUGUUAAGUAUUGUGGUAUUUUGUUCGUCUUAA [JR_SHM208A_Sub074] (puzzle: Sensor for hsa-mir-208a)”, the “apparent KD of MS2 coat protein” value runs as follows: under setting [3], 15.2 nM; under setting [2], 14.2 nM; under setting [4], 15.3 nM.
As to “UAAAGUUAGCGAGGAUAUCGUUUAUUGAAGUUACGAGAAGGCGCUCUUCUUACAUGAGGAUCACCCAUGUCUGUUUUGCAUGAU [JR_SSNG1_Sub067] (Eterna round: R96, puzzle: Same State NG 1)”, the “apparent KD of MS2 coat protein” value was found to be 52 nM (input ligand: FMN 200 uM), 63 nM under setting [1] and 71.3 nM (input ligand: none).
For the sequence “UAAAUAAAGUAAGGAUAUACAUGAGGAUCUCUCGUAGAAGGUACUAUACAUGAGGAUCACCCAUGUGCCGGUCAAUAGACUGGA [Mat - Same State NG 1 - JL mod - D9] (Eterna round: R96, puzzle: Same State NG 1)”, the “apparent KD of MS2 coat protein” value reads like this: (input ligand: FMN 200 uM) 589 nM; under setting [1], 131 nM; (input ligand: none) 446 nM.
“UAAGUAUGUUGAGGAUAUUAUGUUUGGUGAGAUGACAUGAGGAUCACCCAUGUGUUAUCAGUUCUUAAGAAGGCAACAUACUUA [JR_SSNG2_Sub092] (Eterna round: R96, puzzle: Same State NG 2)”: under setting [1], the “apparent KD of MS2 coat protein” value worked out at 20 nM.
In the case of “UAAGUCAUGUAAGGAUAUGCAGCCGAAACGGCUGCAGAAGGUACUAUAAUUACAUGAGGAUCACCCAUGUUAUAAAAUUAAAAU [Mat - Same State NG 1 - JL mod - D79] (Eterna round: R96, puzzle: Same State NG 1)”, the “apparent KD of MS2 coat protein” value by setting is: (input ligand: FMN 200 uM) 20.8 nM; under setting [1], 31.1 nM; (input ligand: none) 57.3 nM.
As to “UAAUUAAGUCAAGGAUAUCACGUCGUUUAGACGUGAGAAGGUGACCAAUACAUGAGGAUCACCCAUGUAAUACAUGAAUAAUUA [SSNG1/12-B3] (Eterna round: R96, puzzle: Same State NG 1)”, the “apparent KD of MS2 coat protein” value runs as follows: (input ligand: FMN 200 uM) 35.5 nM; under setting [1], 46.9 nM; (input ligand: none) 51.4 nM.
For the sequence “UACAAUCUAUCUGAGGAUAUCAUGAAUAAAACAUGAGGAUCACCCAUGUGCAGGAAAACUGCAUAUGAGAAGGCAGAUAGAUUGA [Mat - Same State 2 - Mod - D12] (puzzle: Same State 2)”, the “apparent KD of MS2 coat protein” value was determined as 45.9 nM under setting [3], 411 nM under setting [2] and 1450 nM under setting [4].
As for “UACAAUCUAUCUGAGGAUAUCAUGAAUAAAACAUGAGGAUCACCCAUGUGCAGGAAAACUGCAUAUGAGAAGGCAGAUAGAUUGU [salish99_ss2_r3_067] (puzzle: Same State 2)”, the “apparent KD of MS2 coat protein” value runs as follows: under setting [3], 45.9 nM; under setting [2], 181 nM; under setting [4], 556 nM.

The values are drawn from the supplement of paper PMC9170038.
